Data published in patent US6576607B1, “Methods using CNS neurite outgrowth modulators” (Acorda Therapeutics, priority 1995, dated 2003).

How the values were obtained:
[1] = tested on: dopaminergic neurons; assay: Protection of dopaminergic neurons from MPP+ neurotoxicity; type: cell-based, rat; details: forskolin combined with PDE-IV inhibitor NQ-A
Method: (§1) Cell culture, dopamine uptake and treatment with MPP+have been described (Hartikka et al., 1992). Primary cultures containing dopaminergic neurons were prepared from the ventral mesencephalon of 14-day-old fetal rats and plated in 24 well plates. A culture well usually contained 6×10^5 cells/well, of which 3-5% were dopaminergic. Duplicate cultures were prepared for dopamine uptake or tyrosine hydroxylase staining. Dopamine uptake was measured using tritiated dopamine at concentrations of 50 nM (sp, act. 45 Ci/mmol, New England Nuclear). The survival of dopaminergic neurons in the culture was assayed by counting tyrosine hydroxylase (TH) immunopositive neurons, stained with a monoclonal antibody to TH (Boehringer Mannheim).
(§2) The monoclonal L1 antibodies 327 and 557.B6 (referred to as 557) were added to the culture medium on the day of plating at concentrations of 7.5-120 μg/ml and left for 3 days. In addition to treatment of the culture medium with antibodies, they were also substrate coated prior to plating of the cells, as described (Appel et al., 1993). In experiments with MPP^+ (active metabolite of methyl-phenyl-tetrahydropyridine, MPTP), antibodies or cAMP-elevating agents were added to the culture medium of 5-day-old cultures, followed by 1 μM MPP^+ on day 6 and cells were fixed on day 8 for immunocytochemistry. […]

[2] = tested on: dopaminergic neurons; assay: [3H]dopamine uptake in primary cultures of embryonic ventral mesencephalon; type: cell-based, rat; details: 0.5 μM, 3 days
Method: as §1, §2

[3] = tested on: injured rat spinal cord; assay: Rat spinal cord contusion injury (NYU impactor), intrathecal infusion; type: in vivo; details: 15 μg/ml intrathecally, 6 rats without CyA; unpublished experiments
Method: The NYU Impactor and rat contusion models of spinal cord injury have been extensively described. [Kwo S, Young W, DeCrescito V (1989) Journal of Neurotrauma 6:13-24; Huang P, Young W (1994). Journal of Neurotrauma 11: 547-62; Basso M, Beattie M, Bresnahan J, Anderson DK, Faden A, et al. (1996) Journal of Neurotrauma in press; Constantini S, Young W (1994) Journal of Neurosurgery 80: 97-111]. Rats were anesthetized with an intraperitoneal dose of pentobarbital (40 mg/kg female, 60 mg/kg male), suspended with clamps placed on the T8 and T11 dorsal processes, and injured at one hour after induction of anesthesia. The impactor drops a 10 g rod a distance of 12.5, 25.0, or 50.0 mm onto the dorsal surface of T9-10 spinal cord, exposed by laminectomy. Two digital optical potentiometers measured the trajectory of the falling rod and vertebral movement with a precision of ±20 μm and ±20 μsec. Cord compression rate (Cr) was calculated from the distance of cord compression divided by time required for compression. […]
The rats received daily Keflin® (15 mg/kg b.i.d. subcutaneous) for one week after injury and then Baytril® (5 mg/kg b.i.d. subcutaneous) for 10 days for recurrent urinary tract infections. […] The rats were assessed weekly for locomotor recovery, using the Basso-Beattie-Bresnahan (BBB) scale developed at Ohio State University. […]

[4] = tested on: cerebellar granule cells; details: 5 days in culture
[5] = tested on: hippocampal neurons; assay: Neurite outgrowth assay, hippocampal neurons; type: cell-based, rat; details: hippocampal neurons from 18-day embryos
Method: The tissue culture wells and glass cover slips (1.1 cm diameter) were incubated overnight at 4° C. with 0.01% poly-L-lysine (PLL) and washed three times with distilled water. L1-Fc or CHL1-Fc diluted in Ca/Mg-free Hank's Balanced Salt Solution were applied overnight at 4° C., at the concentrations indicated in the text. The wells and coverslips were washed twice with Hank's and once with seeding medium just before plating cells.
(§3) Hippocampal neurons were prepared from 18-day rat embryos as described (Lochter, A., et al (1991); Brewer, G. J., et al (1993)). Neurons were re-suspended and plated in serum-free Dulbecco's modified Eagle's medium/Nutrient Mix F12 (Life Technologies, Inc.) supplemented with N2 components, 33 mM D-glucose, 1 mM pyruvate, 1 mg/ml BSA, and 5 mM Hepes.
Cerebellar granule cells and hippocampal neurons were seeded into pro-treated 96-well tissue culture plates at a density of 1×10^4 cells or 5×10^3 cells per well, respectively, in 100 μl medium. Soluble fusion proteins were added, when used, 2 hours after seeding the cells, to avoid effects on initial adhesion. […] The lengths of individual neurite were analyzed and quantified with an IBAS image analysis system (Kontron). […] For each cell measured, the total length of all neurites was determined. In each experiment, 50 cells in each of three wells were analyzed. […]

[6] = tested on: hippocampal neurons; assay: Cell survival assay (MTT), embryonic hippocampal neurons; type: cell-based, rat; details: 5 days in culture
Method: as §3

Molecule: COC(=O)c1cccc(-n2c(=O)n(Cc3ccccc3)c(=O)c3ccccc32)c1 [NQ-A, 1-(3-carbomethoxyphenyl)-3-benzyl-quinazoline-2,4-dione]
- protection from MPP+ toxicity [1]: effectively protects against MPP^+ toxicity
- dopamine uptake [2]: slight elevation of dopamine uptake

B1: NgCAM: immunogenic chick NgCAM given intrathecally (protein, UniProt Q03696 21-1266, looked up)
Neuronal-glial cell adhesion …: ITIPPEYGAHDFLQPPELTEEPPEQLVVFPSDDIVLKCVATGNPPVQYRWSREDQPFVPEEHGGVSVVPGSGTLVINATLAARLQGRFRCFATNALGTAVSPEANVIAENTPQWPKEKVTPVEVEEGDPVVLPCDPPESAVPPKIYWLNSDIVHIAQDERVSMGQDGNLYFSNAMVGDSHPDYICHAHFLGPRTIIQKEPLDLRVAPSNAVRSRRPRLLLPRDPQTTTIALRGGSVVLECIAEGLPTPWVRWRRLNGPLLPGGVGNFNKTLRLWGVTESDDGEYECVAENGRGTARGTHSVTVEAAPYWVRRPQSGVFGPGETARLDCEVGGKPRPQIQWSINGVPIEAAGAERRWLRGGALVLPELRPNDSAVLQCEARNRHGPLLANAFLHVVELPLRMLTADEQRYEVVENQTVFLHCRTFGAPAPNVEWLTPTLEPALQDDRSFVFTNGSLRVSAVRGGDGGVYTCMAQNAHSNGSLTALLEVRAPTRISAPPRSATAKKGETVTFHCGATFDPAVTPGELRWLRGGQPLPDDPRYSVAAEMTVSNVDYGDEGTIQCRASTPLDSAEAEAQLRVVGRPPSRDLQVMEVDEHRVRLSWTPGDDHNSPIEKFVVEEEEEREDLQRGFGAADVPGQPWTPPLPLSPYGRFPFRVVAVNAYGRGEHHAPSAPIETPPAAPERNPGGVHGEGNETGNLVITWEPLPPQAWNAPWARYRVQWRPLEEPGGGGPSGGFPWAESTVDAPPVVVGGLPPFSPFQIRVQAVNGAGKGPEATPGVGHSGEDLPLVYPENVGVELLNSSTVRVRWTLGGGPKELRGRLRGFRVLYWRLGWVGERSRRQAPPDPPQIPQSPAEDPPPFPPVALTVGGDARGALLGGLRPWSRYQLRVLVFNGRGDGPPSEPIAFETPEGVPGPPEELRVERLDDTALSVVERRTFKRSITGYVLRYQQVEPGSALPGGSVLRDPQCDLRGLNARSRYRLALPSTPRERPALQTVGSTKPEPPSPLWSRFGVGGRGGFHGAAVEFGAAQEDDVEFEVQFMNKSTDEPWRTSGRANSSLRRYRLEGLRPGTAYRVQFVGRNRSGENVAFWESEVQTNGTVVPQPGGGVCTKGWFIGFVSSVVLLLLILLILCFIKRSKGGKYSVKDKEDTQVDSEARPMKDETFGEYRSLESEAEKGSASGSGAGSGVGSPGRGPCAAGSEDSLAGYGGSGDVQFNEDGSFIGQYRGPGAGPGSSGPASPCAGPPLD
- locomotor recovery and corticospinal tract regeneration [3]: did not result in locomotor recovery or evidence of regenerating corticospinal tracts

B2: CHL1-Fc: extracellular domain of mouse CHL1 fused to the Fc portion of human immunoglobulin IgG1 (protein)
chain: EIPLSVQQVPTIVKQSYVQVAFPFDEYFQIECEAKGNPEPIFSWTKDDKPFDLSDPRIIAANNSGTFKIPNEGHISHFQGKYRCFASNRLGTAVSEEIEFIVPGVPKFPKEKIEPIDVEEGDSIVLPCNPPKGLPPLHIYWMNIELEHIEQDERVYMSQRGDLYFANVEENDSRNDYCCFAAFPKLRTIVQKMPMKLTVNSSNSIKQRKPKLLLPPAQMGSLSAKTVLKGDTLLLECFAEGLPTPHIQWSKPGSELPEGRATIEVHEKTLKIENISYQDRGNYRCTANNLLGKASHDFHVTVEEPPRWKKKPQSAVYSTGSSGILLCEAEGEPQPTIKWRLNGLPIEKHPFPGDFMFPREISFTNLLFNHTGVYQCEASNIHGTILANANIDVIDVIPLIKTKNEENYATVVGYSAFLHCEYFASPKATVVWEVADETHPLEGDRYHTHENGTLEIYRTTEEDAGSYSCWVDNAMGKAVITANLDIRNATKLRVSPKNPRIPKSHVLELYCESQCDSHLKHSLKLSWSKDGEAFEMNGTEDGRIVIDGAYLTISNITAEDQGVYSCSAQTSLDSTSEKTQVTVLGVPDPPETFTCQKDKNRSVRLLREAGDDHNSKSASTIVEFEGNREEPGKWEELTRVQGEETDVVLSLAPYVRYQFRVTAVNEVGRSHASLPSDHHETPPAAPDKNPQNIRVQASQPKEMIIKWEPLKSMEQNGPGLEYKVSWKPQGAPEEWEEEIVTNHTLRVMTPTVYAPYDVKVQAINQLGSSPDPQPVTLYSGEDYPSTAPVIQRVDVMNSTLVKVTWSSIPKETVHGLLRGYQINWWKTKSLLDGRTHPKEVNILRFSGQRNSGMVPSLDPFSEFHLTVLAYNSKGAGPESEPYIFQTPEGVPEQPSFLKVIKVDKDTATLSWGLPKKLNGNLTGYLLQYQIINDTYELGELNEINVTTPSKSSWHLSNLNSTTKYKFYLRACTSRGCGKPISEEGATLGEGSKGIRKITEGVNVTQKIHPVEVLVPGAEHIVHLMTKNWGDNDSIFQDVIETRGREYAGLYDDISTQGW
modifications: left off: a dimerising Fc or GST
notes: extracellular domain of mouse CHL1 fused to the Fc portion of human immunoglobulin IgG1
- morphological features of cultures [4]: denser, generally healthier-looking cultures
- neurite outgrowth [5]: a stimulation was observed
- concentration of maximal effect on survival [6]: 1 µg/mL
- survival [6]: enhanced survival
